Experimental data as given in publication PMC2821155.
Where “and” joins values, the source holds several entries; their conditions need not be identical. Equal entries are not always repeated. Where two headings read alike, the source gives them in different places. One block for each molecule: values may come before it.

Experiments:
Assay in all cases: native gel or EMSA
GluA1 = GluA1 (UniProt P19490)
[1] = biological target: GluA1 Lurcher mutant (A636T) (UniProt P19490)
[2] = biological target: GluA1 Lurcher mutant (A636T) (UniProt P19490); remark: listed apart in the source
[3] = biological target: GluA1ΔNTD Lurcher mutant (A636T)
HA-GluA1 = HA-GluA1 (UniProt P19490)
HA-GluA1ΔNTD = biological target: HA-GluA1ΔNTD
HA-GluA1ΔNTD-GFP×3 = biological target: HA-GluA1ΔNTD-GFP×3
[4] = biological target: neuronal AMPA receptor complex detected using the anti-GluA2/3 antibody (mouse (endogenous in cerebellar granule cells)) (UniProt P23819)
UniProt P23819, sequence (P23819 25-883, one chain of several): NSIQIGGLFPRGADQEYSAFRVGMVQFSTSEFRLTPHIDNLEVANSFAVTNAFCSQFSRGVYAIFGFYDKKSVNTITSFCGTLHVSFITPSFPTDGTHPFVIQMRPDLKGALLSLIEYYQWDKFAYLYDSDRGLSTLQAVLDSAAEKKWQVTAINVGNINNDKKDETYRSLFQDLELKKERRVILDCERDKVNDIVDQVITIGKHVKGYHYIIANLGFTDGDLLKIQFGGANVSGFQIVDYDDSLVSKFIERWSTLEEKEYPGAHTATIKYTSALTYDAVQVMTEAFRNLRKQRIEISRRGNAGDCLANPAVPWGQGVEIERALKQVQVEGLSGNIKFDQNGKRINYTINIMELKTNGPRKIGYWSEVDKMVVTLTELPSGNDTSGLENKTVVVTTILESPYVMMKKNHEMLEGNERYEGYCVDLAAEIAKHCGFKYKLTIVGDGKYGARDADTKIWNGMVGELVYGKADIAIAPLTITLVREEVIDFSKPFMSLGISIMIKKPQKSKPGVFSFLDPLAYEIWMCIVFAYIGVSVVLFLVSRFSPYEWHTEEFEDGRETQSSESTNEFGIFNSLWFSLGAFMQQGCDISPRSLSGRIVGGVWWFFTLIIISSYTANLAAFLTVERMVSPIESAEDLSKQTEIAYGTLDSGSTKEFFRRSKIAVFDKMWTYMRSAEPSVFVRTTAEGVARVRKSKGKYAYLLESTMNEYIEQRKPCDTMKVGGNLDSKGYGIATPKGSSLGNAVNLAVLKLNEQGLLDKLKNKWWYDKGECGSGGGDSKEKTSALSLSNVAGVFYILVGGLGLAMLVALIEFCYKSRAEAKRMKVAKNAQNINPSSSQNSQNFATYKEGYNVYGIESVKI

stoichiometry N (subunits in the oligomer) (HA-GluA1): 4
Molecule: HA-GluA1 (from UniProt P19490 19-907) (receptor)

stoichiometry N (subunits in the oligomer) (HA-GluA1ΔNTD-GFP×3): 4
Molecule: HA-GluA1ΔNTD-GFP×3 (domain or fragment)

stoichiometry N (stargazin per AMPA receptor tetramer) [4]: 1
B1: stargazin (endogenous, cerebellar granule cells) (natural protein)
chain: MGLFDRGVQMLLTTVGAFAAFSLMTIAVGTDYWLYSRGVCKTKSVSENETSKKNEEVMTHSGLWRTCCLEGNFKGLCKQIDHFPEDADYEADTAEYFLRAVRASSIFPILSVILLFMGGLCIAASEFYKTRHNIILSAGIFFVSAGLSNIIGIIVYISANAGDPSKSDSKKNSYSYGWSFYFGALSFIIAEMVGVLAVHMFIDRHKQLRATARATDYLQASAITRIPSYRYRYQRRSRSSSRSTEPSHSRDASPVGVKGFNTLPSTEISMYTLSRDPLKAATTPTATYNSDRDNSFLQVHNCIQKDSKDSLHANTANRRTTPV

Second part, the molecule before the results:

Molecule: GluA1 (from UniProt P19490 19-907) (receptor)
stoichiometry N (subunits in the oligomer) (GluA1): 4 and 2

Molecule: GluA1 Lurcher mutant (A636T) (from UniProt P19490 19-907) (receptor)
stoichiometry N (subunits in the oligomer) [1]: 4 | stoichiometry N (subunits in the oligomer) [2]: 2

Molecule: GluA1ΔNTD Lurcher mutant (A636T) (domain or fragment)
stoichiometry N (subunits in the oligomer) [3]: 4

Molecule: HA-GluA1ΔNTD (domain or fragment)
stoichiometry N (subunits in the oligomer) (HA-GluA1ΔNTD): 4
